From article PMC5723990, “Calmodulin regulates Cav3 T-type channels at their gating brake” (The Journal of Biological Chemistry, 2017) come the findings set out here.

Where two headings read alike, the source gives them in different places. No end group written: not given here. Where only a bound is given, the exact number is not on record here.

The test system of one data set is Ca^2+–CaM. Nature of the data set: Gel mobility-shift assay with CaM. Type of data set: binding, rat. Conditions: molar ratio of CaMB peptide to CaM for saturating gel-mobility shift; native PAGE, 0.1 mM CaCl2, ratios 0.5–4×, incubated ≥1 h at 4 °C; three replicate experiments. On the procedure:
(§1) We followed protocols that we have described previously in an analysis of CaM binding with snail or human L-type calcium channel peptides in the presence of 0.1 or 0.5 mM CaCl2-containing solution ([9]).
(§2) Rat CaM was purified using phenyl-Sepharose 6 Fast-Flow (High Sub) (GE Healthcare), packed to ∼10 ml volume, by gravity flow at 4 °C. Codon-optimized CaM was cloned in pET9d, a T7 Escherichia coli expression vector. CaM was transformed into BL21 DE3 E. coli and grown at 37 °C and 200 rpm to OD of 0.4–0.6 (for Luria Broth, LB) or 0.5–0.9 (for SuperBroth, SB), at which point samples were induced by 1 mM added isopropyl β-D-1-thiogalactopyranoside and grown for another 4 (for SB) to 6 (for LB) h. Robust expression of soluble CaM was confirmed by SDS-PAGE. Cells were collected by centrifugation at ∼4000 × g, then lysed in high-salt buffer (0.1 M Tris-Cl, pH 7.5, 0.5 M NaCl, 0.5 M ammonium sulfate, 1 mM DTT) using an Avestin Emulsiflex homogenizer at 15,000–20,000 p.s.i. with jacketed water cooling, through which the cells were passed ∼3× on average. The cell lysate was clarified by centrifugation at 20,000 rpm in an SS-34 rotor (∼50,000 × g) at 4 °C for 30 min. To the cleared lysate, CaCl2 was added to a final concentration of 10 mM. The lysate was then applied to the gravity phenyl-Sepharose column equilibrated with the same high salt buffer (and 1 mM CaCl2). […]

The nature of data set [1]: Aggregation of peptides in buffers. Type of data set: physicochemical. Conditions: observation during CD (PBS: 10 mM sodium phosphate pH 7.3, 137 mM NaCl) and ITC sample preparation. Here is the method: CD measurements were performed using a Jasco-715 spectropolarimeter (Jasco Instruments, Easton, MD), using the following parameters: 250–190-nm range, 50 nm/min speed, with 1-s response time, 1-nm bandwidth, and 100-millidegree sensitivity at room temperature. 16–25 accumulations were gathered depending on signal quality. Recordings were made in a 1-mm cuvette, in 10 mM sodium phosphate buffer with 0.1 mM added CaCl2, and used as baseline, which was subtracted from each recording. For CaM and CaMB peptide spectra, the same solution of 10 μM CaM was scanned before stock (1 mM) peptide was added in incremental amounts before being scanned again. The resulting spectra were subtracted (e.g. CaM and CaMB peptide-CaM alone) to extract the spectrum corresponding to the change associated with adding the peptide. Every recording was an average of at least 16 accumulations and subsequently corrected for protein concentration (converted to units of mean residue ellipticity). These were smoothed and exported into ASCII format for analysis with Excel and either SOMCD or Dichroweb K2d algorithm (http://dichroweb.cryst.bbk.ac.uk)^6 ([92], [93]). […]
(§3) Heat gain or heat requirements in the sample cell (for exothermic binding or endothermic binding, respectively) correspond to the direction of the injection peaks measured in the isothermal titration calorimeter (MicroCal iTC200, Malvern Instruments, UK). […]

Data set [2] has as its target T1, Ca^2+–CaM (wild-type calmodulin) (Rattus norvegicus, UniProt P0DP29).
T1 construct: His tag; made in house; host or cells: E. coli BL21 DE3 (pET9d)
Nature of the data set: Isothermal titration calorimetry of CaMB peptides with wild-type CaM. Conditions: ITC, one-set-of-sites fit, 25 °C, 10 mM HEPES pH 7.0, 0.1 mM CaCl2 (b23 says 0.5 mM CaCl2), mean of n = 3 (Fig. 6A), read-out: Binding affinity (Ka). On the procedure:
as §1
as §2, with “average.” for “average. The cell lysate was clarified by centrifugation at 20,000 rpm in an SS-34 rotor (∼50,000 × g) at 4 °C for 30 min. To the cleared lysate, CaCl2 was added to a final concentration of 10 mM. The lysate was then applied to the gravity phenyl-Sepharose column equilibrated with the same high salt buffer (and 1 mM CaCl2).”
as §3
Background: ITC needs no label: the signal is the heat of the interaction.

Data set [3] addresses T2, C-CaM (C-lobe of CaM, 74-aa construct) (Homo sapiens, UniProt P0DP23).
T2 construct: partial CaMs: N-CaM(1–74), C-CaM(75–148); His tag; made in house; host or cells: bacteria (E. coli)
In words: Isothermal titration calorimetry with C-lobe of CaM. Conditions: ITC, one-set-of-sites fit, 25 °C, 10 mM HEPES pH 7.0, 0.1 mM CaCl2, mean of n = 3 (Fig. 6A), read-out: Binding affinity (Ka).
From the text: (§4) We have used human CaM and associated CaM mutants that we have described before ([9]), CaM(1–44) and partial CaMs: N-CaM(1–74), C-CaM(75–148), and CaMs that simulate CaM binding in the absence of calcium, by substitution of glutamate residues in the two calcium-binding sites in the N-terminal lobe (CaM12) or C-terminal lobe (CaM34), or mutation of all four calcium-binding sites (CaM1234) of CaM. CaM–GFP used for Western blotting is a construct consisting of GFP fused to the C terminus of CaM expressed in pcDNA3.1 (Cell Signaling Technology) ([83]). EGFP expression vector was obtained by subcloning EGFP from pEGFP-C1 (BD Biosciences) into the multiple cloning site of pcDNA3.1. The CaM1234 overexpression construct contained bicistronic marker mRFP (to generate a red color) ([46]) to distinguish from the channel expression with bicistronic EGFP (to generate a green color). The CaM1234 overexpression construct also containing CaM shRNA knockdown includes two short hairpin sequences described above to knock down CaM (Calm1,2,3 genes) ([46][–][48]). […]
as §3

For data set [4], the target named is T3, N-CaM (N-lobe of CaM, 74-aa construct) (Homo sapiens, UniProt P0DP23).
T3 construct: partial CaMs: N-CaM(1–74), C-CaM(75–148); His tag; made in house; host or cells: bacteria (E. coli)
In words: Isothermal titration calorimetry with N-lobe of CaM. The settings on record: ITC, one-set-of-sites fit, 25 °C, 10 mM HEPES pH 7.0, 0.1 mM CaCl2, mean of n = 3 (Fig. 6A), read-out: Binding affinity (Ka).
From the text: as §4, §3

In data set [5] the target is calmodulin (CaM), wild type, bacterially expressed (rat) (UniProt P0DP29). In words: native gel or EMSA; gel-mobility shift of CaM with 0.5–4× molar ratios of peptide; native gels with 4 M urea, 0.1 mM CaCl2 in running buffer; incubation ≥1 h at 4 °C in 150 mM NaCl, 50 mM Tris-Cl pH 7.5, 1 mM CaCl2. Background: In EMSA bound probe runs differently from free probe, usually more slowly.

For data set [6] the target is unchanged. In words: ITC; 10 mM HEPES pH 7.0, 0.1 mM CaCl2 (results: 0.5 mM CaCl2), 25 °C, one-set-of-sites model, mean of three replicates.
Data set [7] concerns the target CaM_(1234), CaM with all four Ca^2+-binding sites mutated (human) (UniProt P0DP23). The description is as above.
Data set [8] concerns the target calmodulin (CaM), wild type, bacterially expressed (rat) (UniProt P0DP29). Described as above. The source holds these as a separate data set.
The target of data set [9] is C-CaM(75–148), C-terminal lobe of CaM (human) (UniProt P0DP23). The description is as above.

A word on the stoichiometry N: it is a count of units in the complex or per binding partner.

For the substance YEEIFQYVCHILRKAKRRALGLYQAL [Cav3.3], in the data set on Ca^2+–CaM, the “[CaMB Peptide] for Complete shift” value is given as more than 4.0 x. Further, in data set [1], the aggregation result is listed as “severe aggregation issues in PBS”.
Consider YEELLKYLVYILRKAARRLAQVSRAA [Cav3.1], for which, in the data set with Ca^2+–CaM, the “[CaMB Peptide] for Complete shift” value is recorded as 1.5 x. The aggregation result in data set [1] is “severe aggregation issues in PBS”.
Turning to YEELLKYVGHIFRKVKRRSLRLYARW [Cav3.2], the Kd in data set [2] is 187 nM; in data set [3], 691 nM; in [4], 31.1 nM.
For the substance YSELLKLVAQVYRRVKRKVIKTYYKT [LCav3], the Kd in data set [2] was 12.4 nM.
In the case of “human Cav3.1 CaMB peptide (26-mer gating brake peptide)”, in data set [5], the CaMB peptide to CaM ratio required for a saturating gel-mobility shift (× (peptide to CaM ratio)) stood at 1.5. The values for the Kd in [6], in data set [7] and in [8] were 36 nM, 543 nM and 42.7 nM, respectively. In data set [8], this substance displayed a stoichiometry N of 1.
On to “human Cav3.2 CaMB peptide (26-mer gating brake peptide)”, for which the CaMB peptide to CaM ratio required for a saturating gel-mobility shift (× (peptide to CaM ratio)) in data set [5] is 1.5. The Kd was 196 nM in data set [6] and 690 nM in data set [9]. The stoichiometry N in [8] turned out to be 1.
With “human Cav3.3 CaMB peptide (26-mer gating brake peptide)”, the CaMB peptide to CaM ratio required for a saturating gel-mobility shift (× (peptide to CaM ratio)) in data set [5] is more than 4. Further, in data set [8], the Kd is 383 nM and the stoichiometry N stood at 1.
With “snail LCav3 CaMB peptide (26-mer gating brake peptide)”, in [5], the CaMB peptide to CaM ratio required for a saturating gel-mobility shift (× (peptide to CaM ratio)) is 1. In data set [6], the Kd was 10 nM. Besides, the fold reduced affinity compared with wild-type CaM in data set [7] was found to be 349 fold. This substance gave a stoichiometry N in [8] of 1.
